Test results from US9163227B2, “Anti-diabetic compounds” (PFIZER INC., priority 2011, dated 2015).
Where a chain is given by its changes, count along the chain named. Names and notes keep the numbering of the source. Values joined by “and” are separate entries in the source; they are usually repeats but may differ in a detail not shown here. Equal values may be shown once. Read-outs that look alike come from different tables or passages of the source. One block for each molecule: values may come before it.

Assays:
[1] = Mouse pharmacokinetics of FGF21 antibody conjugates; assay type: in vivo, Swiss-Webster mice; settings: mice
Protocol: The PK of FGF21 antibody conjugates were examined in mice after IV or SC administration. […] Antibody conjugates concentrations in serum were determined using an ELISA which captured the FGF21 portion of the antibody conjugates through a monoclonal anti-hFGF21 antibody bound to a 96-well plate. FGF21 antibody conjugates bound to the plate were detected through an anti-hFc monoclonal antibody, and concentrations were determined using a standard curve of the PK dosing solution diluted into serum-containing assay buffer. SC bioavailability was calculated as the ratio of the area-under the curve (AUC) of the SC serum concentration profile divided by the AUC of the IV serum concentration profile.

[2] = Body weight and liver weight in ob/ob mice; assay type: in vivo; settings: single SC dose 3 mg/kg; for Cumulative body weight change, mean body weight: FIG. 5A; for mean liver weight: FIG. 5B
Protocol: (§1) The efficacy of FGF21 antibodies conjugates was evaluated in two murine obese insulin resistant models—ob/ob mice and high-fat diet-induced obese mice. For both models, male mice (6-8 weeks of age for ob/ob, 12-14 weeks of age for DIO with high-fat diet initiated at 6 weeks of age) were housed 2-4/cage and FGF21 antibody conjugates were administered by SC injection. Body weight was measured daily in the morning. Glucose tolerance was assessed by oral glucose tolerance test. Briefly, mice were fasted for 4-5 hrs in the morning of the day of testing. A basal blood sample was obtained and blood glucose levels were determined using a portable glucometer.

[3] = biological target: Glut1 mRNA expression in differentiated 3T3-L1 adipocytes (Mus musculus, UniProt P16092+Q99N32); assay: Glut1 Taqman assay; assay type: cell-based; settings: for EC50: 6 hrs
Protocol: Differentiated 3T3-L1 adipocytes were used to measure the Glut1 mRNA expression by qPCR method. Overnight serum starved day 10-14 differentiated 3T3-L1 adipocytes were treated with compounds for 6 hrs. Total RNA was extracted from these cells, and Glut1 and GAPDH mRNA expression was measured using a Quantitect Probe RT-PCR kit and running a quantitative real time PCR reaction in a Taqman machine (Applied Biosystems®). The bioactivity of the compounds was determined by a fold change in Glut1 mRNA levels normalized by the GAPDH mRNA levels from each sample. EC═values as measurements of the potency of the compounds were obtained from the dose response curves in the assay.
3T3-L1 adipocytes were seeded at day 8 in 24-well tissue culture plates (Falcon®, Cat#353047), and incubated in DMEM complete medium (10% FBS, 2 mM L-glutamine, 1% P/S) at 37° C., 5% CO2. […] The medium was aspirated, and then RNA extracted from the cells using the RNeasy mini Kit according to the manufacturer's instructions. RNA was measured at A260 nm using the Spectramax® Plus spectrophotometer.
In Glut1 Taqman assay, differentiated 3T3-L1 adipocytes were used to measure the Glut1 mRNA expression by real-time quantitative PCR (qPCR) method described below. Overnight serum starved day 10-14 differentiated 3T3-L1 adipocytes were treated with compounds for 6 hrs. Total RNA was extracted from these cells, and Glut1 and GAPDH mRNA expression was measured using a Quantitect Probe RT-PCR kit and running a real time quantitative PCR reaction in a Taqman machine. The bioactivity of the compounds was determined by a fold change in Glut1 mRNA levels normalized by the GAPDH mRNA levels from each sample. In cAMP assay, Chinese hamster ovary (CHO) cells over-expressing human GLP-1R(CHO-hGLP-1R) were seeded in 96-well plates in serum-free medium with 300 uM IBMX. Cells were incubated with compounds at RT for 1 hr. The cAMP levels were measured using a CisBio cAMP Kit according to manufacturer's instructions. The bioactivity of the compounds was determined by the EC50 values obtained from the assay (see Table 42).

[4] = system: ob/ob mice; assay: Oral glucose tolerance test in ob/ob mice (FGF21 conjugates); assay type: in vivo; settings: ob/ob mice; for Mean Glucose AUC (% of vehicle control) during OGTT: FIGS. 4A/4B, single SC dose 3 mg/kg
Protocol: as §1

[5] = biological target: differentiated 3T3-L1 adipocytes (Mus musculus, UniProt P16092+Q99N32); assay: Glucose uptake assay; assay type: cell-based
Protocol: Differentiated 3T3-L1 adipocytes were treated with compounds in the absence of serum for 24 hrs. Cells were then incubated with ^14C-2-deoxyglucose for 1 hr and glucose uptake into the cells was quantitated in Wallac 1450 MicroBeta (Trilux) instrument. Glucose uptake was expressed in counts per min (CPM). EC50 values as measurements of the potency of the compounds were obtained from the dose response curves in the assay.

[6] = differentiated 3T3-L1 adipocytes, protein or antibody conjugate as labelled, read-out: Glut1 Taqman assay EC50
[7] = 3T3-L1 adipocytes, 24 hrs, unconjugated protein

Chain of Glut1 mRNA expression in differentiated 3T3-L1 adipocytes (P16092 22-822): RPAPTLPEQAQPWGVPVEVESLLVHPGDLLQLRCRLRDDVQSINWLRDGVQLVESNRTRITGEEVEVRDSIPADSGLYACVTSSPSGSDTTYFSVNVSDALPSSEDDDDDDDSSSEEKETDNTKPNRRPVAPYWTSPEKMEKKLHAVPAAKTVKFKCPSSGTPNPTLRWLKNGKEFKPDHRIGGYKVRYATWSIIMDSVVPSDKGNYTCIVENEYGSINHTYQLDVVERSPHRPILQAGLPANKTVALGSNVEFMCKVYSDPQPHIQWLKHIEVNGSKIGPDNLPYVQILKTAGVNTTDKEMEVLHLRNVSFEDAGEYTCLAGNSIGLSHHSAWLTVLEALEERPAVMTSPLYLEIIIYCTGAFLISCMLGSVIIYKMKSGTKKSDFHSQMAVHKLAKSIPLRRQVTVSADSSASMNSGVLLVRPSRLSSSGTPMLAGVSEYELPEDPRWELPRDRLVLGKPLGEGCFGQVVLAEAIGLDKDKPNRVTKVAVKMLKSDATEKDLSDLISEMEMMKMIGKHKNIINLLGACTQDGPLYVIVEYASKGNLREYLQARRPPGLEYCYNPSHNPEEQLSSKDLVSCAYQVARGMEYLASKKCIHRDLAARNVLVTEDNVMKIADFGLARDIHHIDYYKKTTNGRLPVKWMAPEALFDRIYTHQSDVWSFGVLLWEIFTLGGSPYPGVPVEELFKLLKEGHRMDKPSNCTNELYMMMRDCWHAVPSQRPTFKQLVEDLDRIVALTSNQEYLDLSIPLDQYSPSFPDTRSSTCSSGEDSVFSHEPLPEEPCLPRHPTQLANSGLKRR
Chain of Glut1 mRNA expression in differentiated 3T3-L1 adipocytes (Q99N32 whole entry): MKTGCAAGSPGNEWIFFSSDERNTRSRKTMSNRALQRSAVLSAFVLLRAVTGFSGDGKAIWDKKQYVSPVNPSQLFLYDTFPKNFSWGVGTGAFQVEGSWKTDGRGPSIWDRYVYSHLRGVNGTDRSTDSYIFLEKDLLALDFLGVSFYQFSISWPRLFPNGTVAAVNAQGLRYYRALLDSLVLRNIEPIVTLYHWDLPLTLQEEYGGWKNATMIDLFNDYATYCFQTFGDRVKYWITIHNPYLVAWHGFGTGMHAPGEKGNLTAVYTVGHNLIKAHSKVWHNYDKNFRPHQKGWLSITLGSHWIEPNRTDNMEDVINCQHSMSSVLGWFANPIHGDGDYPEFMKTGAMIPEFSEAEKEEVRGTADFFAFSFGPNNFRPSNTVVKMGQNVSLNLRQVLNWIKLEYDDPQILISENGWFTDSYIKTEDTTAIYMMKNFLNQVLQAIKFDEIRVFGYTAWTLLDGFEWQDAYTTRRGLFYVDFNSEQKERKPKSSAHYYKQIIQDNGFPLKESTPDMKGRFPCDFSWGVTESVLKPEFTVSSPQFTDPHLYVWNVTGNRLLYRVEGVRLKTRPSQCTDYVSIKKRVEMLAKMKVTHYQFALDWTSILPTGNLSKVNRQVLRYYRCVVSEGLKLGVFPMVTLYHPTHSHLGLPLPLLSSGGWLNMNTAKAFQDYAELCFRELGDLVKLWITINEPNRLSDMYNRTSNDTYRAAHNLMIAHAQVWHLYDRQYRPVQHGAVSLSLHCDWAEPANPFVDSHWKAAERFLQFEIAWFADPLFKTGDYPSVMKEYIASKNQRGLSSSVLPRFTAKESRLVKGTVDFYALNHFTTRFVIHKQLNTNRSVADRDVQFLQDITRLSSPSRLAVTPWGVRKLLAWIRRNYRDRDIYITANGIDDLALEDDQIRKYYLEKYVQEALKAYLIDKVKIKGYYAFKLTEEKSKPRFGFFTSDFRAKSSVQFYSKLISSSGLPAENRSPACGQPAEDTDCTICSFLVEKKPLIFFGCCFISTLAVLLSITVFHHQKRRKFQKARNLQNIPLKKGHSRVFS
Chain of differentiated 3T3-L1 adipocytes (P16092 22-822): as the sequence (P16092 22-822) above
Chain of differentiated 3T3-L1 adipocytes (Q99N32 whole entry): as the sequence (Q99N32 whole entry) above

B1: Ab-L5-FGF21ΔH-K59: SEQ ID NO:19 combined with L5 at K59 and conjugated with h38C2 (conjugate, listed as Homo sapiens)
chain: PIPDSSPLLQFGGQVRQRYLYTDDAQQTEAHLEIREDGTVGGAADQSPESLLQLRALKPGVIQILGVRTSRFLCQRPDGALYGSLHFDPEACSFRELLLEDGYNVYQSEAHGLPLHLPGNRSPHRDPAPRGPARFLPLPGLPPALPEPPGILAPQPPDVGSSDPLSMVGPSQGRSPSYAS
modifications: L5 linker at K59 conjugated to h38C2 antibody
IV half-life [1]: 13 h
Cumulative body weight change, mean body weight [2]: 2.7 g
mean liver weight [2]: 2.4 g
EC50 [3, 6]: 6.5 nM
Mean Glucose AUC (% of vehicle control) during OGTT [4]: 105 % of vehicle control

B4: FGF21ΔH-Knull-S181K: FGF21 lysine-null mutant with S181K, SEQ ID NO:24 (protein, listed as Homo sapiens)
chain: B1 chain with K58R, S180K
EC50 [3, 6]: 7.5 nM

B5: FGF21ΔH-L86C: FGF21 cysteine mutant, SEQ ID NO:14 (protein, listed as Homo sapiens)
chain: B1 chain with R55K, R68K, L85C, R121K
EC50 ([5]; unconjugated protein (per Examples 18-21), n in parentheses): 62 nM

B6: Ab-L5-FGF21ΔH-Knull-P2: SEQ ID NO:22 combined at the N' terminus of P2 with L5 and conjugated with h38C2 (conjugate, listed as Homo sapiens)
chain: B1 chain with K58R
modifications: L5 linker at N-terminus, conjugated to h38C2 antibody
IV half-life [1]: 17 h
EC50 [3, 6]: 16.6 nM

B8: FGF21ΔH-K56-K59R-K69R-K122: FGF21 lysine mutant, SEQ ID NO:21 (protein, listed as Homo sapiens)
chain: B1 chain with K58R, R121K
EC50 [5, 7]: 1.7 nM
EC50 [3, 6]: 2.6 nM

B11: FGF21ΔH-K56-K59R-K69R-K122R: FGF21 lysine mutant, SEQ ID NO:18 (protein, listed as Homo sapiens)
chain: B1 chain with R55K, K58R
EC50 [5, 7]: 5.5 nM
EC50 [3, 6]: 0.9 nM

B13: Ab-L5-FGF21ΔH-Knull-H1K: SEQ ID NO:23 combined with L5 at H1K and conjugated with h38C2 (conjugate, listed as Homo sapiens)
chain: KPIPDSSPLLQFGGQVRQRYLYTDDAQQTEAHLEIREDGTVGGAADQSPESLLQLRALRPGVIQILGVRTSRFLCQRPDGALYGSLHFDPEACSFRELLLEDGYNVYQSEAHGLPLHLPGNRSPHRDPAPRGPARFLPLPGLPPALPEPPGILAPQPPDVGSSDPLSMVGPSQGRSPSYAS
modifications: L5 linker at K1 conjugated to h38C2 antibody
Cumulative body weight change, mean body weight [2]: 2.6 g
mean liver weight [2]: 2.4 g
Mean Glucose AUC (% of vehicle control) during OGTT [4]: 100 % of vehicle control
glucose tolerance in ob/ob mice (in words) [4]: compared poorly against Ab-FGF21ΔH-H125C

More lines, main results first:

EC50 [3, 6]: 1.2 nM
B2: FGF21ΔH-Knull-P2: FGF21 lysine-null mutant, SEQ ID NO:22 (protein, listed as Homo sapiens)
chain: B1 chain with K58R

EC50 [3, 6]: 1.2 nM
B3: FGF21ΔH-H125C: FGF21 cysteine mutant, SEQ ID NO:7 (protein, listed as Homo sapiens)
chain: B1 chain with R55K, R68K, R121K, H124C

EC50 [3, 6]: > 500 nM
B7: Ab-L5-FGF21ΔH-Knull-S181K: SEQ ID NO:24 combined with L5 at S181K and conjugated with h38C2 (conjugate, listed as Homo sapiens)
chain: B1 chain with K58R, S180K
modifications: L5 linker at K181 conjugated to h38C2 antibody

EC50 [5, 7]: 5.2 nM
EC50 [3, 6]: 1.3 nM
B9: FGF21ΔH-K56R-K59R-K69-K122R: FGF21 lysine mutant, SEQ ID NO:20 (protein, listed as Homo sapiens)
chain: B1 chain with K58R, R68K

EC50 [5, 7]: 0.9 nM
EC50 [3, 6]: 0.6 nM
B10: FGF21ΔH-K56R-K59-K69R-K122R: FGF21 lysine mutant, SEQ ID NO:19 (protein, listed as Homo sapiens)
chain: B1 chain

activity in Glut1 Taqman assay (in words) ([3]; 3T3-L1 adipocytes): dose-dependent Glut1 induction
EC50 ([3]; 3T3-L1 adipocytes, serum-free DMEM 0.2% BSA, Taqman quantitative real-time PCR, read-out: Glut1 RNA expression EC50): 16 nM
EC50 [3, 6]: 1.4 nM
B12: FGF21ΔH-A129C: FGF21 cysteine mutant, SEQ ID NO:10 (protein, listed as Homo sapiens)
chain: B1 chain with R55K, R68K, R121K, A128C

EC50 [3, 6]: 6.4 nM and 4.3 nM
B14: FGF21ΔH-Knull-H1K: FGF21 lysine-null mutant with H1K, SEQ ID NO:23 (protein, listed as Homo sapiens)
chain: B13 chain
IV half-life [1]: 16 h
SC bioavailability [1]: 51%
SC half-life [1]: 11 h
